Experimental data reported in PMC7038949, “FRET-Based Aptasensor for the Selective and Sensitive Detection of Lysozyme”.

Biological target: lysozyme (chicken (egg white), UniProt P00698 19-147)
Experiment: single-molecule FRET (aptamer displacement); H1 helper strand 1 uM, 10 mM Mg2+; detection limit 30 nM, dynamic range to ~2 uM (not a Kd); 1x TAE-Mg: 40 mM Tris, 20 mM acetic acid, 1 mM EDTA, 10 mM Mg2+, pH 7.4; 1 uM H1 in imaging solution; temperature not stated
Settings: protein: commercial; label: 3' Cy3 on Cy3 strand; 5' Cy5 on Cy5 strand; partially double-stranded multi-strand assembly; 15 nt of aptamer strand (6 extension + 9 aptamer) paired with B1; lysozyme displaces the aptamer strand

Chain of lysozyme (P00698 19-147): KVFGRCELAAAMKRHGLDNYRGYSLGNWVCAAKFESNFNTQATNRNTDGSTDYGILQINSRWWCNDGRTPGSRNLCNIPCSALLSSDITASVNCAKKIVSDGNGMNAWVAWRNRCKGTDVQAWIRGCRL

B1: lysozyme aptasensor (aptamer annealed to B1, Cy5, top and Cy3 strands) (mixed)
DNA 1: ACTGTCATCAGGGCTAAAGAGTGCAGAGTTACTTAG
DNA 2: AGCCCTGATGACAGTAATATAATTCTATA
DNA 3: TATAGAATTATATTATATTACGAGTAGTGAGTTCCA
DNA 4: ATCAGAAGCTCTC
DNA 5: TGGAACTCACTACTCGATTAGTGTATGACCTCTATATGAGAGCTTCTGAT
modifications: 5' biotin-TEG on Cy3 strand
  binding result: binds
